# Measurements taken from US20190127468A1.
# Several values for one entry are separate records, joined by “and”; a condition that tells them apart may be missing. Equal values may be shown once.
# B1: anti-mouse CTLA4 mAb 9H10 (antibody, from another filing)
# scFv: YPYDVPDYAGAQPARSDIVMTQSPSSLAVSVGEKVTISCKSSQSLLYGSSHYLAWYQQKVGQSPKLLIYWASTRHTGIPDRFIGSGSGTDFTLSLSSVQAEDMADYFCQQYFSTPWTFGAGTRVEIKSGSGGGSGGGSGGGSQVQLLQSESELVKPGASVKLSCKTSGYTFTDYYIHWVKQKPGQGLEWIGLINPNNDGTNYNQKFQGKATLTADKSSSTAYMELNSLTFDDSVIYFCARASSRLRMARTTSDYYAMDYWGQGIQVTVSSVDSSGSGGCKPCICTVPEVSSVFIFPPKPKDVLTITLTPKVTCVVVDISKDDPEVQFSWFVDDVEVHTAQTQPREEQFNSTFRSVSELPIMHQDWLNGKEFKCRVNSAAFPAPIEKTISKTKGRPKAPQVYTIPPPKEQMAKDKVSLTCMITDFFPEDITVEWQWNGQPAENYKNTQPIMDTDGSYFVYSKLNVQKSNWEAGNTFTCSVLHEGLHNHHTEKSLSHSPGK
# B2: chimeric L3D10 antibody (antibody, V domains shown)
# VH: QVQLKESGPGLVAPSQSLSITCTVSGFSLTSYGLSWVRQPPGKGLEWLGVIWYDGNTNFHSALISRLTISKDNSKSQVFLELNSLQTDDTATYYCAKTEGHYYGSNYGYYALDYWGQGTSVTVSS
# VL: DIQMTQSPASLSVSVGETVTITCRASENIYSNLAWYQQKQGKSPQLLVYAATNLADGVPSRFSGSGSGTQYSLKINSLQSEDFGTYFCQHLWGTPYTFGGGTKLEIKR
# modifications: biotinylated (sites not given)
# Experiments:
# [1] = target: mouse CTLA4-Fc fusion protein (mouse) (UniProt P09793); assay: ELISA, binding to plate-bound mouse CTLA4-Fc
# [2] = target: human CTLA-4Fc mutant protein M11 (human); assay: ELISA on coated target; binder 10 ng/ml
# human CTLA-4Fc mutant protein M11 (human), sequence (chain, as listed by the source mutant limits assumed): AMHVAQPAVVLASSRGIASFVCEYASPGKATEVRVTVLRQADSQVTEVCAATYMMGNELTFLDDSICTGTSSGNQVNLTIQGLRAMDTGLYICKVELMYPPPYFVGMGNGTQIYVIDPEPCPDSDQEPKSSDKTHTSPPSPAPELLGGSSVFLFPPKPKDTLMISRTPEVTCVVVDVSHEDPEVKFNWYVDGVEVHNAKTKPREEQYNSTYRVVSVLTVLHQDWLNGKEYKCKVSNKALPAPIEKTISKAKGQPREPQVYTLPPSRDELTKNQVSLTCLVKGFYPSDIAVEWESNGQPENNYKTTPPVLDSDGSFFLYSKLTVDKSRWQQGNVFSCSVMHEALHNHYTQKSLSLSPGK
# mouse CTLA4-Fc (mouse) [3] = target: mouse CTLA4-Fc (mouse) (UniProt P09793); assay: ELISA on coated target; binder 10 ng/ml
# [4] = target: human CTLA-4Fc mutant protein M11 (human); assay: ELISA on coated target; binder 100 ng/ml
# mouse CTLA4-Fc (mouse) [5] = target: mouse CTLA4-Fc (mouse) (UniProt P09793); assay: ELISA on coated target; binder 100 ng/ml
# [6] = target: human CTLA-4Fc mutant protein M11 (human); assay: ELISA on coated target; binder 1000 ng/ml
# mouse CTLA4-Fc (mouse) [7] = target: mouse CTLA4-Fc (mouse) (UniProt P09793); assay: ELISA on coated target; binder 1000 ng/ml
# [8] = target: human CTLA-4Fc mutant protein M11 (human); assay: ELISA on coated target; binder 0 (background)
# mouse CTLA4-Fc (mouse) [9] = target: mouse CTLA4-Fc (mouse) (UniProt P09793); assay: ELISA on coated target; binder 0 (background)
binder,measurement,setting,value
B1,EC50 (read off the curve),[1],1 µg/mL
B2,OD450,[2],0.19 OD and 0.194 OD
same,OD450,mouse CTLA4-Fc (mouse) [3],0.201 OD and 0.18 OD
same,OD450,[4],0.752 OD and 0.746 OD
same,OD450,mouse CTLA4-Fc (mouse) [5],0.303 OD and 0.314 OD
same,OD450,[6],2.89 OD and 2.91 OD
same,OD450,mouse CTLA4-Fc (mouse) [7],0.942 OD and 0.94 OD
same,OD450,[8],0.171 OD and 0.155 OD
same,OD450,mouse CTLA4-Fc (mouse) [9],0.19 OD and 0.189 OD
